{
  "source": "paper PMC9482650",
  "about": "“Quantitative fragmentomics allow affinity mapping of interactomes” (Nature Communications, 2022)",
  "assay_in_all_cases": "holdup assay",
  "parameters_in_all_cases": "key: below the threshold = too weak to quantify, mostly under pKd 3.1 to 4",
  "key": {"[1]": {"molecular_target": "T1, APBA1_1, Q02410", "T1 sequence (Q02410 651-752, limits assumed, looked up)": "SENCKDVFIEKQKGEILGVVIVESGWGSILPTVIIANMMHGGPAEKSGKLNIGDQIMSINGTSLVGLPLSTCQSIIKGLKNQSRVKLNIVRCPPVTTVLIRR"}, "[2]": {"molecular_target": "ARHGEF12, Q9NZN5-2", "sequence (Q9NZN5 other isoform, or with tags, fused parts or gaps)": "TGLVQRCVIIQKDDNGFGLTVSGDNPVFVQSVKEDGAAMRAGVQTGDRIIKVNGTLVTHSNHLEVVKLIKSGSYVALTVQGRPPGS", "conditions": "plain residues with an end cap or a label only (N-terminal biotin on a linker: ttds)"}, "[3]": {"molecular_target": "DLG5_1, Q8TDM6", "sequence (Q8TDM6 617-713)": "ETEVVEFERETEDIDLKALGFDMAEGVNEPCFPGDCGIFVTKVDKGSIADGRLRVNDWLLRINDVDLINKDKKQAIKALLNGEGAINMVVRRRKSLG"}, "[4]": {"molecular_target": "T2, GRIP1_2, Q9Y3R0", "T2 sequence (Q9Y3R0 145-248, limits assumed, looked up)": "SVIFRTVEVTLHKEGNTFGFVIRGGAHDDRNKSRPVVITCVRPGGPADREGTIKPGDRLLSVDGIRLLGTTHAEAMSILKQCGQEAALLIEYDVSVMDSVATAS"}, "[5]": {"molecular_target": "HTRA1, Q92743", "sequence (Q92743 360-477)": "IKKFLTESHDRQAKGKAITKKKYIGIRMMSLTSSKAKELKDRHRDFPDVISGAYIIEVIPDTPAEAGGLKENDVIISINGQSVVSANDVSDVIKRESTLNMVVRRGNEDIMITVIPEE"}, "[6]": {"molecular_target": "IL16_1, Q14005", "sequence (Q14005 210-306)": "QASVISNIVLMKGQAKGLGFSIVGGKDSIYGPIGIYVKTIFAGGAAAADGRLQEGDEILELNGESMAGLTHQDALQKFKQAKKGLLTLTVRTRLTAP"}, "[7]": {"molecular_target": "IL16_3, Q14005", "sequence (Q14005 1107-1207)": "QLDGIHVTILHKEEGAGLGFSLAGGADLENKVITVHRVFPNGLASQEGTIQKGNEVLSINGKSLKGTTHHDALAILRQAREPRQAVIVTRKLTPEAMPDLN"}, "[8]": {"molecular_target": "Inadl_3, Q8NI35", "sequence (Q8NI35 359-469)": "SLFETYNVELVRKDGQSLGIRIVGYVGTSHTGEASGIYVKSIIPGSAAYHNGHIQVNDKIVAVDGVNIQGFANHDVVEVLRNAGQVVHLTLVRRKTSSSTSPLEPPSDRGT"}, "[9]": {"molecular_target": "Inadl_5, Q8NI35", "sequence (Q8NI35 673-780)": "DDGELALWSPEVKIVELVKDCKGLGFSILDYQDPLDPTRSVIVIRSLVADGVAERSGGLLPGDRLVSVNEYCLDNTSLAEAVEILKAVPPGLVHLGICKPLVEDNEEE"}, "[10]": {"molecular_target": "LNX1_2, Q8TBB1", "sequence (Q8TBB1 371-470)": "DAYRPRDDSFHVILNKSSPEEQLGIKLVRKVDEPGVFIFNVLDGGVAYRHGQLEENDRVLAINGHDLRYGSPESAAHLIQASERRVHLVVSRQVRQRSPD"}, "[11]": {"molecular_target": "MAGI2_2, Q86UL8", "sequence (Q86UL8 410-522)": "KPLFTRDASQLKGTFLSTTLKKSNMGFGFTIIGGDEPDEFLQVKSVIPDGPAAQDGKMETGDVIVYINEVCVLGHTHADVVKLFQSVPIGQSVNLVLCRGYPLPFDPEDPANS"}, "[12]": {"molecular_target": "MAGI3_2, Q5TCQ9", "sequence (Q5TCQ9 398-503)": "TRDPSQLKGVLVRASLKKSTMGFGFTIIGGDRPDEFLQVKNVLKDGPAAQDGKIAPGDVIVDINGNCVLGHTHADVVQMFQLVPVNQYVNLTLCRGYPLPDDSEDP"}, "[13]": {"molecular_target": "MAST1, Q9Y2H9", "sequence (Q9Y2H9 962-1065)": "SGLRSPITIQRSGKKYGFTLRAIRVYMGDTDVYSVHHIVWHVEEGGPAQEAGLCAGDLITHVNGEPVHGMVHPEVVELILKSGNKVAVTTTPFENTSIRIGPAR"}, "[14]": {"molecular_target": "T3, MPP7, Q5T2T1", "T3 sequence (Q5T2T1 134-230, limits assumed, looked up)": "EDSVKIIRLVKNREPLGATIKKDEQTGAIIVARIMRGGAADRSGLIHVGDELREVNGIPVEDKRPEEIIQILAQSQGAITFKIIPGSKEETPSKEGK"}, "[15]": {"molecular_target": "T4, NHERF3_3, Q5T2W1", "T4 sequence (Q5T2W1 238-333, limits assumed, looked up)": "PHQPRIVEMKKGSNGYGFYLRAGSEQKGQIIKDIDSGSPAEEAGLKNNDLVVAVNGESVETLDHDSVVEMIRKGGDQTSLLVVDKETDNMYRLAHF"}, "[16]": {"molecular_target": "PDLIM1, O00151", "sequence (O00151 1-87)": "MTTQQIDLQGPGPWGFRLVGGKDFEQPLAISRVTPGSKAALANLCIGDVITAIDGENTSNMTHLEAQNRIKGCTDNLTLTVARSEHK"}, "[17]": {"molecular_target": "T5, PDZRN3_1, Q9UPQ7", "T5 sequence (Q9UPQ7 244-349, limits assumed, looked up)": "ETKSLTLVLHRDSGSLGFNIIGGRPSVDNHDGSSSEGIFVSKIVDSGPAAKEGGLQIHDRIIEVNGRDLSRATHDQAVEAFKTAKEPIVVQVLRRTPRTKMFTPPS"}, "[18]": {"molecular_target": "PTPN3, P26045", "sequence (P26045 505-587)": "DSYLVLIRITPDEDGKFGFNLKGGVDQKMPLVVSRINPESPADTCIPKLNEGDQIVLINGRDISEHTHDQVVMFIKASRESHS"}, "[19]": {"molecular_target": "T6, RADIL, Q96JH8", "T6 sequence (Q96JH8 971-1071, limits assumed, looked up)": "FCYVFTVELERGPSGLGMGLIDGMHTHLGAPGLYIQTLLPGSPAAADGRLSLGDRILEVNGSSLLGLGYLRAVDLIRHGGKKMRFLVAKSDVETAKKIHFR"}, "[20]": {"molecular_target": "T7, RAPGEF6, Q8TEU7", "T7 sequence (Q8TEU7 525-625, limits assumed, looked up)": "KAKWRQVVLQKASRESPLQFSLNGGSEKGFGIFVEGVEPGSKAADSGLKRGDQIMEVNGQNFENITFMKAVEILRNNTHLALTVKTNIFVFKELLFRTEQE"}, "[21]": {"molecular_target": "T8, RHPN1, Q8TCX5", "T8 sequence (Q8TCX5 508-602, limits assumed, looked up)": "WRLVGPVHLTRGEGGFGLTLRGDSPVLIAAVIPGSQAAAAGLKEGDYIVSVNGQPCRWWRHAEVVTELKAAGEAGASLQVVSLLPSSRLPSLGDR"}, "[22]": {"molecular_target": "T9, SNTG2, Q9NY99", "T9 sequence (Q9NY99 68-166, limits assumed, looked up)": "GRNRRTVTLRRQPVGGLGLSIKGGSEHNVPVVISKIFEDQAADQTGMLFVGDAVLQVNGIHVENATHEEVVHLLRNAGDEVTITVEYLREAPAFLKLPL"}, "[23]": {"molecular_target": "TJP1_3, Q07157", "sequence (Q07157 416-512)": "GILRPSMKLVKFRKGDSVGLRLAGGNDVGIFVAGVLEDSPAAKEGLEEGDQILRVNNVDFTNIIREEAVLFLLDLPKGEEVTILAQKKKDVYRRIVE"}, "[24]": {"molecular_target": "T10, ARHGEF11, O15085", "T10 sequence (O15085 42-136, limits assumed, looked up)": "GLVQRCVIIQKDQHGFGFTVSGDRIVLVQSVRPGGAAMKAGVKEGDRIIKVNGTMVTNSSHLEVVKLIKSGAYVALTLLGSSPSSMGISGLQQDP"}, "[25]": {"molecular_target": "FRMPD3, Q5JV73", "sequence (Q5JV73 12-100)": "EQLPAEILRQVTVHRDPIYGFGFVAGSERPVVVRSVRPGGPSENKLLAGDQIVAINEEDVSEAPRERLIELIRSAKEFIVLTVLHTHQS"}, "[26]": {"molecular_target": "GRID2IP_2, A4D2P6", "sequence (A4D2P6 272-370)": "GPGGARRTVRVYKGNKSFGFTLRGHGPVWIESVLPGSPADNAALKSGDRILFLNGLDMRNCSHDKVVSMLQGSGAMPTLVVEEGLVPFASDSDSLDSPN"}, "[27]": {"molecular_target": "T11, SNTA1, Q13424", "T11 sequence (Q13424 82-180, limits assumed, looked up)": "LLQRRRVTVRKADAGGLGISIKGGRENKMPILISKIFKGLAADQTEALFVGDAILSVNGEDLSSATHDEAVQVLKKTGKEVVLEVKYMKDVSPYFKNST", "conditions": "plain residues with an end cap or a label only (N-terminal biotin on a linker: ttds)"}, "[28]": {"conditions": "plain residues with an end cap or a label only (N-terminal biotin on a linker: ttds)"}, "[29]": {"conditions": "plain residues with an end cap or a label only (N-terminal biotin on a linker: ahx)"}},
  "data": [
    {"binder": "NDPAWDETNL", "note": "[ARHGEF7, Q14155;Q14155-1]", "values": [
      {"measurement": "pKd", "setting": "[1]; [28]", "result": "below the threshold"},
      {"measurement": "pKd", "setting": "[2]", "result": 4.03},
      {"measurement": "pKd", "setting": "[3]; [28]", "result": "below the threshold"},
      {"measurement": "pKd", "setting": "[4]; [28]", "result": "below the threshold"},
      {"measurement": "pKd", "setting": "[5]; [28]", "result": 3.92},
      {"measurement": "pKd", "setting": "[6]; [28]", "result": "below the threshold"},
      {"measurement": "pKd", "setting": "[7]; [28]", "result": "below the threshold"},
      {"measurement": "pKd", "setting": "[8]; [28]", "result": "below the threshold"},
      {"measurement": "pKd", "setting": "[9]; [28]", "result": "below the threshold"},
      {"measurement": "pKd", "setting": "[10]; [28]", "result": "below the threshold"},
      {"measurement": "pKd", "setting": "[11]; [28]", "result": "below the threshold"},
      {"measurement": "pKd", "setting": "[12]; [28]", "result": "below the threshold"},
      {"measurement": "pKd", "setting": "[13]; [28]", "result": 4.92},
      {"measurement": "pKd", "setting": "[14]; [28]", "result": "below the threshold"},
      {"measurement": "pKd", "setting": "[15]; [28]", "result": "below the threshold"},
      {"measurement": "pKd", "setting": "[16]; [28]", "result": "below the threshold"},
      {"measurement": "pKd", "setting": "[17]; [28]", "result": 3.92},
      {"measurement": "pKd", "setting": "[18]; [28]", "result": 4.44},
      {"measurement": "pKd", "setting": "[19]; [28]", "result": "below the threshold"},
      {"measurement": "pKd", "setting": "[20]; [28]", "result": "below the threshold"},
      {"measurement": "pKd", "setting": "[21]; [28]", "result": 4.6},
      {"measurement": "pKd", "setting": "[22]; [28]", "result": 4.22},
      {"measurement": "pKd", "setting": "[23]; [28]", "result": "below the threshold"}
    ]},
    {"binder": "EMDRRPATVV", "note": "[PLCB4, Q15147]", "values": [
      {"measurement": "pKd", "setting": "[1]; [28]", "result": "below the threshold"},
      {"measurement": "pKd", "setting": "[24]; [28]", "result": 4.6},
      {"measurement": "pKd", "setting": "[2]", "result": 4.53},
      {"measurement": "pKd", "setting": "[3]; [28]", "result": "below the threshold"},
      {"measurement": "pKd", "setting": "[25]; [28]", "result": 3.64},
      {"measurement": "pKd", "setting": "[26]; [28]", "result": 3.93},
      {"measurement": "pKd", "setting": "[4]; [28]", "result": 3.72},
      {"measurement": "pKd", "setting": "[5]; [28]", "result": 4.23},
      {"measurement": "pKd", "setting": "[6]; [28]", "result": "below the threshold"},
      {"measurement": "pKd", "setting": "[7]; [28]", "result": "below the threshold"},
      {"measurement": "pKd", "setting": "[10]; [28]", "result": 3.67},
      {"measurement": "pKd", "setting": "[11]; [28]", "result": 4.31},
      {"measurement": "pKd", "setting": "[12]; [28]", "result": 4.65},
      {"measurement": "pKd", "setting": "[13]; [28]", "result": 4.48},
      {"measurement": "pKd", "setting": "[14]; [28]", "result": "below the threshold"},
      {"measurement": "pKd", "setting": "[15]; [28]", "result": "below the threshold"},
      {"measurement": "pKd", "setting": "[16]; [28]", "result": "below the threshold"},
      {"measurement": "pKd", "setting": "[17]; [28]", "result": 4.08},
      {"measurement": "pKd", "setting": "[18]; [28]", "result": "below the threshold"},
      {"measurement": "pKd", "setting": "[19]; [28]", "result": 3.99},
      {"measurement": "pKd", "setting": "[20]; [28]", "result": "below the threshold"},
      {"measurement": "pKd", "setting": "[21]; [28]", "result": 3.74},
      {"measurement": "pKd", "setting": "[27]", "result": 4.08},
      {"measurement": "pKd", "setting": "[22]; [28]", "result": 3.71},
      {"measurement": "pKd", "setting": "[23]; [28]", "result": "below the threshold"}
    ]},
    {"binder": "LSDPSVSTVV", "note": "[GRIN1, Q05586;Q05586-2]", "values": [
      {"measurement": "pKd", "setting": "[1]; [29]", "result": "below the threshold"},
      {"measurement": "pKd", "setting": "[24]; [29]", "result": 4.01},
      {"measurement": "pKd", "setting": "[3]; [29]", "result": "below the threshold"},
      {"measurement": "pKd", "setting": "[25]; [29]", "result": "below the threshold"},
      {"measurement": "pKd", "setting": "[26]; [29]", "result": "below the threshold"},
      {"measurement": "pKd", "setting": "[4]; [29]", "result": "below the threshold"},
      {"measurement": "pKd", "setting": "[5]; [29]", "result": 4.32},
      {"measurement": "pKd", "setting": "[6]; [29]", "result": "below the threshold"},
      {"measurement": "pKd", "setting": "[7]; [29]", "result": "below the threshold"},
      {"measurement": "pKd", "setting": "[8]; [29]", "result": "below the threshold"},
      {"measurement": "pKd", "setting": "[9]; [29]", "result": "below the threshold"},
      {"measurement": "pKd", "setting": "[10]; [29]", "result": "below the threshold"},
      {"measurement": "pKd", "setting": "[11]; [29]", "result": "below the threshold"},
      {"measurement": "pKd", "setting": "[12]; [29]", "result": "below the threshold"},
      {"measurement": "pKd", "setting": "[13]; [29]", "result": "below the threshold"},
      {"measurement": "pKd", "setting": "[14]; [29]", "result": "below the threshold"},
      {"measurement": "pKd", "setting": "[15]; [29]", "result": "below the threshold"},
      {"measurement": "pKd", "setting": "[16]; [29]", "result": "below the threshold"},
      {"measurement": "pKd", "setting": "[17]; [29]", "result": "below the threshold"},
      {"measurement": "pKd", "setting": "[18]; [29]", "result": "below the threshold"},
      {"measurement": "pKd", "setting": "[19]; [29]", "result": 3.98},
      {"measurement": "pKd", "setting": "[20]; [29]", "result": "below the threshold"},
      {"measurement": "pKd", "setting": "[21]; [29]", "result": 4.47},
      {"measurement": "pKd", "setting": "[22]; [29]", "result": "below the threshold"},
      {"measurement": "pKd", "setting": "[23]; [29]", "result": "below the threshold"}
    ]}
  ]
}
